Tests used:
[1] = target: T1, His-tagged SARS-CoV-2 RBD (Severe acute respiratory syndrome …, UniProt P0DTC2); assay: BLI; settings: both partners purified
[2] = target: T2, SARS-CoV-2 spike on intact virus (SARS-CoV-2/human/AUS/VIC01/2020) (SARS-CoV-2, isolate human/AUS/VIC01/2020); assay: cell-based or functional assay
[3] = target: T2, SARS-CoV-2 spike on intact virus …; assay: ELISA; whole virus ELISA: SARS-CoV-2 virus captured on plates coated with mouse anti-spike mAb31, serial dilutions of IgG or Fab, ALP anti-human IgG (Fab-specific); Kd = concentration at half-maximal binding by nonlinear regression; settings: one partner purified
[4] = target: His-tagged RBD for structural analysis (SARS-CoV-2 Wuhan-Hu-1 (MN908947), UniProt P0DTC2, treated with endoglycosidase H1; 'glycosylated RBD' was used for the complex with Fab S309 and Fab384); assay: crystal structure; settings: both partners purified
[5] = target: T1, His-tagged SARS-CoV-2 RBD; assay: BLI; competition assay, Octet RED96e, His-tagged RBD on Anti-HIS (HIS2) biosensors, saturating antibody 15 ug/ml then competing IgG 5 ug/ml; 10 mM HEPES pH 7.4, 150 mM NaCl; settings: both partners purified

B1: Fab 158 (Fab, V domains shown)
VH: EVQLLESGGDLIQPGGSLRLSCAASGVTVSSNYMSWVRQAPGKGLEWVSIIYPGGSTFYADSVKGRFTISRDNSKNTLYLQMHSLRAEDTAVYYCARDLGSGDMDVWGKGTTVTVSS
VL: DIVMTQSPSFLSASVGDRVTITCRASQGISSYLAWYQQKPGKAPKLLIQAASTLQSGVPSRFSGSGSGTEFTLTISSLQPEDFATYYCQQLNSYRYTFGQGTKVEIK
Question: With B1 as the binder, how does the Kd [1] read?
Answer: The Kd was 0.7 nM.

Question: What about the koff [1] of the same binder?
Answer: The koff was 8.4e-05 s⁻¹.

Question: And the kon [1]?
Answer: Its kon is 120000 M⁻¹ s⁻¹.

Question: And the “Table S7: Neutralization IC50 (nM), FRNT of authentic SARS-CoV-2, Fab” value (“Table S7: Neutralization IC50 (nM), FRNT … Fab” for short) [2]?
Answer: The value was 4.12 nM.

Question: What about the Kd [3] of the same binder?
Answer: Its Kd is 3.73 nM.

B2: Strep-tagged Fab 158 (Fab, V domains shown)
VH: EVQLLESGGDLIQPGGSLRLSCAASGVTVSSNYMSWVRQAPGKGLEWVSIIYPGGSTFYADSVKGRFTISRDNSKNTLYLQMHSLRAEDTAVYYCARDLGSGDMDVWGKGTTVTVSS
VL: DIVMTQSPSFLSASVGDRVTITCRASQGISSYLAWYQQKPGKAPKLLIQAASTLQSGVPSRFSGSGSGTEFTLTISSLQPEDFATYYCQQLNSYRYTFGQGTKVEIK
notes: also called Fab58 (as printed in the crystallization paragraph); source: HEK293T, transient transfection, purified (Strep-Tactin)
Question: Does B2 bind [4]?
Answer: Result: binds

B3: mAb 158 (IgG) (antibody, V domains shown)
VH: EVQLLESGGDLIQPGGSLRLSCAASGVTVSSNYMSWVRQAPGKGLEWVSIIYPGGSTFYADSVKGRFTISRDNSKNTLYLQMHSLRAEDTAVYYCARDLGSGDMDVWGKGTTVTVSS
VL: DIVMTQSPSFLSASVGDRVTITCRASQGISSYLAWYQQKPGKAPKLLIQAASTLQSGVPSRFSGSGSGTEFTLTISSLQPEDFATYYCQQLNSYRYTFGQGTKVEIK
notes: IgG1
Question: B3 was tested. Which Kd [3] did it give?
Answer: Its Kd is 0.5 nM.

B4: Fab 40 (Fab, V domains shown)
VH: QVQLVESGGGLVQPGGSLRLSCAVSGFTVSRNYMSWVRQAPGKGLEWVSLIYSGGSTFYADSVKGRFTISRDNSKNTLYLQMNSLRAEDTAVYYCARDLFHRSGYHDYWGQGTLVTVSS
VL: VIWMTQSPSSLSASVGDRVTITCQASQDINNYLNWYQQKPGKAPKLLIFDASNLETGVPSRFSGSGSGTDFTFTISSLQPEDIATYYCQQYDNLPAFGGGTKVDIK
notes: also called 40 Fab
Question: How did the “Table S7: Neutralization IC50 (nM), FRNT … Fab” value [2] turn out when B4 was run?
Answer: The value was 45.7 nM.

Question: What about the Kd [3] of the same binder?
Answer: Its Kd is 1.23 nM.

B5: mAb 40 (IgG) (antibody, V domains shown)
VH: QVQLVESGGGLVQPGGSLRLSCAVSGFTVSRNYMSWVRQAPGKGLEWVSLIYSGGSTFYADSVKGRFTISRDNSKNTLYLQMNSLRAEDTAVYYCARDLFHRSGYHDYWGQGTLVTVSS
VL: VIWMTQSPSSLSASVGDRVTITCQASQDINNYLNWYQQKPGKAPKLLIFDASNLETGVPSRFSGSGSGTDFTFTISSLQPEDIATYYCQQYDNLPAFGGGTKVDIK
notes: IgG1
Question: For B5, which Kd [3] is on record?
Answer: Its Kd is 0.33 nM.

B6: chimeric mAb 253H165L (IgG) (antibody, V domains shown)
VH: not shown
VL: DIVMTQSPGTLSLSPGERATLSCRASQSVRSSYLAWYQQKPGQAPRLLIYGASRRGTGIPDRFSGSGSGTDFTLTISRLEPEDFAVYYCQQYGSSPWTFGQGTKVEIK
Question: Which “Table S7: Neutralization IC50 (nM), FRNT of authentic SARS-CoV-2” value [2] does the source give for B6 here?
Answer: The value was 0.03 nM.

Question: What about the Kd [3] of the same binder?
Answer: The Kd was 0.09 nM.

B7: chimeric Fab 253H165L (Fab, V domains shown)
VH: not shown
VL: DIVMTQSPGTLSLSPGERATLSCRASQSVRSSYLAWYQQKPGQAPRLLIYGASRRGTGIPDRFSGSGSGTDFTLTISRLEPEDFAVYYCQQYGSSPWTFGQGTKVEIK
Question: Which results are given for B7?
Answer: Table S7: Neutralization IC50 (nM), FRNT of authentic SARS-CoV-2, Fab [2]: 5.22 nM; Kd [3]: 5.02 nM

B8: mAb 384 (IgG) (antibody, V domains shown)
VH: EVQLVESGGGLVKPGESLRLSCAASGFTFSDYYMTWIRQAPGKGLEWVSYIRSSGHTIYYADSVKGRFTISRDNAKNSLYLQMNSLRVEDTAVYYCARGGVLRFLEWPLNAFDIWGQGTMVTVSS
VL: DIQLTQSPSSLSASVGDRVTITCRASQGISNYLAWYQQKPGKVPKLLIYAASTLQSGVPSRFSGSGSGTDFTLTISSLQPEDVATYYCQKYNNALGTFGQGTKVEIK
notes: IgG1
Question: Does B8 bind [5]?
Answer: Result: binds

B9: Fab384 (Fab, V domains shown)
VH: EVQLVESGGGLVKPGESLRLSCAASGFTFSDYYMTWIRQAPGKGLEWVSYIRSSGHTIYYADSVKGRFTISRDNAKNSLYLQMNSLRVEDTAVYYCARGGVLRFLEWPLNAFDIWGQGTMVTVSS
VL: DIQLTQSPSSLSASVGDRVTITCRASQGISNYLAWYQQKPGKVPKLLIYAASTLQSGVPSRFSGSGSGTDFTLTISSLQPEDVATYYCQKYNNALGTFGQGTKVEIK
Question: Does B9 bind [4]?
Answer: Result: binds

B10: Fab 88 (Fab, V domains shown)
VH: QLQLQESGPGLVKPSQTLSLTCTVSGGSISSGSYNWTWIRQPAGKGLEWIGRIYNSGSTNYNPSLKSRVTISVDTSKNQLSLKVRSVTAADTAVYYCARHCSGGTCYPKYYYGMDVWGQGTTVTVSS
VL: QSALTQPPSVSEAPRQRVTISCSGSSSNIGNNAVNWYQQFPGKAPKLLIYYDDLLPSGVSDRFSGSKSGTSASLAISGVQSEDEADYYCAAWDDSLNVVVFGGGTKLTVL
notes: also called 88 Fab
Question: How did the “Table S7: Neutralization IC50 (nM), FRNT … Fab” value [2] turn out when B10 was run?
Answer: The value was 6.95 nM.

Question: What about the Kd [3] of the same binder?
Answer: Its Kd is 1.21 nM.

B11: mAb 88 (IgG) (antibody, V domains shown)
VH: QLQLQESGPGLVKPSQTLSLTCTVSGGSISSGSYNWTWIRQPAGKGLEWIGRIYNSGSTNYNPSLKSRVTISVDTSKNQLSLKVRSVTAADTAVYYCARHCSGGTCYPKYYYGMDVWGQGTTVTVSS
VL: QSALTQPPSVSEAPRQRVTISCSGSSSNIGNNAVNWYQQFPGKAPKLLIYYDDLLPSGVSDRFSGSKSGTSASLAISGVQSEDEADYYCAAWDDSLNVVVFGGGTKLTVL
notes: IgG1
Question: B11 was tested. Which Kd [3] did it give?
Answer: Its Kd is 0.25 nM.

B12: Fab 316 (Fab, V domains shown)
VH: not shown
VL: QAVLTQPPSASGSPGQSVTISCTGTSSDVGGYNYVSWYQQHPGKAPKLMIYEVSKRPSGVPDRFSGSKSGNTASLTVSGLQAEDEADYYCSSYAGSNHWVFGGGTKLTVL
Question: Which koff [1] does the source give for B12 here?
Answer: The koff was 0.00071 s⁻¹.

Question: And the kon [1]?
Answer: Its kon is 350000 M⁻¹ s⁻¹.

Question: What about the “Table S7: Neutralization IC50 (nM), FRNT … Fab” value [2] of the same binder?
Answer: The value was 27.6 nM.

Question: What about the Kd [3] of the same binder?
Answer: The Kd was 8.76 nM.

B13: mAb 316 (IgG) (antibody, V domains shown)
VH: not shown
VL: QAVLTQPPSASGSPGQSVTISCTGTSSDVGGYNYVSWYQQHPGKAPKLMIYEVSKRPSGVPDRFSGSKSGNTASLTVSGLQAEDEADYYCSSYAGSNHWVFGGGTKLTVL
notes: IgG1
Question: Which Kd [3] does the source give for B13 here?
Answer: The Kd was 0.13 nM.

B14: Fab 150 (Fab, V domains shown)
VH: QVQLVESGGGLIQPGGSLRLSCAASGVTVSSNYMSWVRQAPGKGLEWVSIIYSGGTTYYADSVKGRFTISRDSSMNTLYLQMNSLRAEDTAVYYCARDLMVYGIDVWGQGTTVTVSS
VL: EIVMTQSPSSLSASVGDRVTITCRASQGISSYLAWYQQKPGKAPKLLIYAASTLQSGVPSRFSGSGSGTDFTLTISSLQPEDFATYYCQQLDSYPPGYTFGQGTKVDIK
Question: For B14, which “Table S7: Neutralization IC50 (nM), FRNT … Fab” value [2] is on record?
Answer: Its value is 0.61 nM.

Question: What about the Kd [3] of the same binder?
Answer: Its Kd is 0.75 nM.

B15: mAb 150 (IgG) (antibody, V domains shown)
VH: QVQLVESGGGLIQPGGSLRLSCAASGVTVSSNYMSWVRQAPGKGLEWVSIIYSGGTTYYADSVKGRFTISRDSSMNTLYLQMNSLRAEDTAVYYCARDLMVYGIDVWGQGTTVTVSS
VL: EIVMTQSPSSLSASVGDRVTITCRASQGISSYLAWYQQKPGKAPKLLIYAASTLQSGVPSRFSGSGSGTDFTLTISSLQPEDFATYYCQQLDSYPPGYTFGQGTKVDIK
notes: IgG1
Question: With B15 as the binder, how does the Kd [3] read?
Answer: Its Kd is 0.24 nM.

B16: mAb 75 (IgG) (antibody, V domains shown)
VH: QVQLVESGGGVVQPGRSLRLSCAASGFTFNNYPLHWVRQAPGKGPEWVAVISQDGGNKYYVDSVKGRFTISRDNSKNTLYLQMNNLRAEDTALYYCARDVVVVVAARNHYYNGMDVWGQGTTVTVSS
VL: DIQLTQSPSSVSASVGDRVTITCRASQGISSWLAWYQQKPGKAPKLLIYAVSSLQSGVPSRFSGSGSGTDFTLTISSLQPEDFATYYCQQAKSFPFTFGPGTKVEIK
notes: IgG1
Question: Does B16 bind [5]?
Answer: Result: binds

B17: Fab75 (Fab, V domains shown)
VH: QVQLVESGGGVVQPGRSLRLSCAASGFTFNNYPLHWVRQAPGKGPEWVAVISQDGGNKYYVDSVKGRFTISRDNSKNTLYLQMNNLRAEDTALYYCARDVVVVVAARNHYYNGMDVWGQGTTVTVSS
VL: DIQLTQSPSSVSASVGDRVTITCRASQGISSWLAWYQQKPGKAPKLLIYAVSSLQSGVPSRFSGSGSGTDFTLTISSLQPEDFATYYCQQAKSFPFTFGPGTKVEIK
notes: also called mAb 75
Question: Does B17 bind [4]?
Answer: Result: binds

B18: Fab 45 (Fab, V domains shown)
VH: QVQLVESGGGVVQPGRSLRLSCAASGFTFSTYAMHWVRQAPGKGLEWVAVLSYDGSNKYYADSVKGRFTISRDNSKNTLYLQMNSLRAEDTAVYYCAKGGSYAYYYYMDVWGKGTTVTVSS
VL: not shown
Question: How did the Kd [1] turn out when B18 was run?
Answer: The Kd was 5.9 nM.

Question: And the koff [1]?
Answer: The koff was 0.00046 s⁻¹.

Question: And the kon [1]?
Answer: The kon was 78000 M⁻¹ s⁻¹.

B19: Fab 269 (Fab, V domains shown)
VH: QVQLVESGGGLIQPGGSLRLSCAASGLTVNRNYMSWIRQAPGKGLEWVSVIYSGGSTFYADSVKGRFTISRDNSKNTLSLQMNSLRAEDTAIYYCARDFYEGSFDIWGQGTMVTVSS
VL: AIQLTQSPSFLSASIGDRVTITCRASQGISSYLAWYQQKPGKAPKLLIYAASTLQSGVPSRFSGSGSGTEFTLTISSLQPEDFASYYCQQLNSYPAPVFGPGTKVDIK
Question: What does the source list for B19?
Answer: Kd [1]: 2.2 nM; koff [1]: 0.00039 s⁻¹; kon [1]: 180000 M⁻¹ s⁻¹

B20: mAb 159 (IgG) (antibody, V domains shown)
VH: EVQLVESGGGVVQPGRSLRLSCAASGFTFSSYGMHWVRQAPGKGLEWVALISYDGGNRYYADSVKGRFTISRDNSKNTLYLQMNRLRAEDTAMYYCAKDRDDGWDWYYFMDVWGKGTTVTVSS
VL: DIQLTQSPGTLSLSPGERATLSCRASQSISGNYLAWYQHKPGQAPRLLIYGASTRATGIPDRFSGSGSGTDFTLTISRLEPEDFAVYYCQQYGSSYTFGQGTKVEIK
notes: IgG1; also called 159 (anti-spike); IgG159
Question: How did the Kd [3] turn out when B20 was run?
Answer: The Kd was 0.19 nM.

B21: Fab 159 (Fab, V domains shown)
VH: EVQLVESGGGVVQPGRSLRLSCAASGFTFSSYGMHWVRQAPGKGLEWVALISYDGGNRYYADSVKGRFTISRDNSKNTLYLQMNRLRAEDTAMYYCAKDRDDGWDWYYFMDVWGKGTTVTVSS
VL: DIQLTQSPGTLSLSPGERATLSCRASQSISGNYLAWYQHKPGQAPRLLIYGASTRATGIPDRFSGSGSGTDFTLTISRLEPEDFAVYYCQQYGSSYTFGQGTKVEIK
notes: also called 159 Fab
Question: How did the Kd [3] turn out when B21 was run?
Answer: Its Kd is 0.29 nM.

— paper PMC7891125 (Cell, 2021)
